In the supplement of paper PMC10567573:

B1: FBXO3 (parent)
chain: HDPLWRRHCKKYWLISEEEKTQKN

Variants of: B1
Assay: protein stability index of a GFP-peptide fusion (GPS, HEK-293T) (PSI 1-6); higher = more stable
Settings: c terminus: a fixed tail appended
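Note: lentivirally expressed fusions sorted by FACS into six bins by GFP to DsRed ratio, PSI derived from sequencing read proportions per bin multiplied by bin number.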

Variant | protein stability index
HDPHWRRHCKKYWLISEEEKTQKN | 3.45
HDPVWRRHCKKYWLISEEEKTQKN | 3.32
HDPMWRRHCKKYWLISEEEKTQKN | 3.26
HDPEWRRHCKKYWLISEEEKTQKN | 2.9
HDPKWRRHCKKYWLISEEEKTQKN | 2.95
HDPGWRRHCKKYWLISEEEKTQKN | 3.75
HDPCWRRHCKKYWLISEEEKTQKN | 3.51
HDPDWRRHCKKYWLISEEEKTQKN | 4.6
HDPWWRRHCKKYWLISEEEKTQKN | 3.63
HDPQWRRHCKKYWLISEEEKTQKN | 3.88
HDPYWRRHCKKYWLISEEEKTQKN | 3.45
HDPRWRRHCKKYWLISEEEKTQKN | 2.33
HDPAWRRHCKKYWLISEEEKTQKN | 2.92
HDPSWRRHCKKYWLISEEEKTQKN | 3.87
HDPIWRRHCKKYWLISEEEKTQKN | 2.93
HDPNWRRHCKKYWLISEEEKTQKN | 3.52
HDPLWRYHCKKYWLISEEEKTQKN | 2
HDPLWRCHCKKYWLISEEEKTQKN | 2.95
HDPLWREHCKKYWLISEEEKTQKN | 3.31
HDPLWRPHCKKYWLISEEEKTQKN | 4.42
HDPLWRAHCKKYWLISEEEKTQKN | 3.39
HDPLWRKHCKKYWLISEEEKTQKN | 3.22
HDPLWRWHCKKYWLISEEEKTQKN | 2.68
HDPLWRQHCKKYWLISEEEKTQKN | 3.54

Variant | protein stability index
HDPLWRIHCKKYWLISEEEKTQKN | 3.14
HDPLWRSHCKKYWLISEEEKTQKN | 3.46
HDPLWRNHCKKYWLISEEEKTQKN | 3.46
HDPLWRDHCKKYWLISEEEKTQKN | 3.8
HDPLWRVHCKKYWLISEEEKTQKN | 2.71
HDPLWRFHCKKYWLISEEEKTQKN | 2.21
HDPLWRGHCKKYWLISEEEKTQKN | 4.02
HDPLWRLHCKKYWLISEEEKTQKN | 3.14
HDPLWRMHCKKYWLISEEEKTQKN | 2.86
HDPLWRTHCKKYWLISEEEKTQKN | 3.53
HDPLWRHHCKKYWLISEEEKTQKN | 3.02
HDKLWRRHCKKYWLISEEEKTQKN | 3.03
HDVLWRRHCKKYWLISEEEKTQKN | 3.84
HDWLWRRHCKKYWLISEEEKTQKN | 2.44
HDYLWRRHCKKYWLISEEEKTQKN | 2.75
HDLLWRRHCKKYWLISEEEKTQKN | 3.12
HDQLWRRHCKKYWLISEEEKTQKN | 3.5
HDHLWRRHCKKYWLISEEEKTQKN | 2.97
HDELWRRHCKKYWLISEEEKTQKN | 3.45
HDRLWRRHCKKYWLISEEEKTQKN | 2.91
HDGLWRRHCKKYWLISEEEKTQKN | 3.1
HDCLWRRHCKKYWLISEEEKTQKN | 3.02
HDALWRRHCKKYWLISEEEKTQKN | 3.58
HDTLWRRHCKKYWLISEEEKTQKN | 3.84

Variant | protein stability index
HDSLWRRHCKKYWLISEEEKTQKN | 3.38
HDMLWRRHCKKYWLISEEEKTQKN | 3.33
HDFLWRRHCKKYWLISEEEKTQKN | 2.41
HDDLWRRHCKKYWLISEEEKTQKN | 3.33
HDILWRRHCKKYWLISEEEKTQKN | 3.08
HDNLWRRHCKKYWLISEEEKTQKN | 3.49
DDPLWRRHCKKYWLISEEEKTQKN | 4.12
YDPLWRRHCKKYWLISEEEKTQKN | 2.12
LDPLWRRHCKKYWLISEEEKTQKN | 3.85
EDPLWRRHCKKYWLISEEEKTQKN | 3.84
PDPLWRRHCKKYWLISEEEKTQKN | 3.74
KDPLWRRHCKKYWLISEEEKTQKN | 3.21
QDPLWRRHCKKYWLISEEEKTQKN | 3.13
FDPLWRRHCKKYWLISEEEKTQKN | 2.34
VDPLWRRHCKKYWLISEEEKTQKN | 3.38
IDPLWRRHCKKYWLISEEEKTQKN | 2.06
RDPLWRRHCKKYWLISEEEKTQKN | 2.8
CDPLWRRHCKKYWLISEEEKTQKN | 3.53
ADPLWRRHCKKYWLISEEEKTQKN | 3.78
TDPLWRRHCKKYWLISEEEKTQKN | 3.66
WDPLWRRHCKKYWLISEEEKTQKN | 2.15
GDPLWRRHCKKYWLISEEEKTQKN | 3.29
NDPLWRRHCKKYWLISEEEKTQKN | 3.38
SDPLWRRHCKKYWLISEEEKTQKN | 3.62

Variant | protein stability index
MDPLWRRHCKKYWLISEEEKTQKN | 3.32
HDPLWCRHCKKYWLISEEEKTQKN | 3.35
HDPLWGRHCKKYWLISEEEKTQKN | 3.6
HDPLWWRHCKKYWLISEEEKTQKN | 2.46
HDPLWVRHCKKYWLISEEEKTQKN | 2.98
HDPLWARHCKKYWLISEEEKTQKN | 2.99
HDPLWHRHCKKYWLISEEEKTQKN | 3.51
HDPLWDRHCKKYWLISEEEKTQKN | 4.04
HDPLWIRHCKKYWLISEEEKTQKN | 2.58
HDPLWMRHCKKYWLISEEEKTQKN | 3.58
HDPLWTRHCKKYWLISEEEKTQKN | 3.43
HDPLWSRHCKKYWLISEEEKTQKN | 3.69
HDPLWPRHCKKYWLISEEEKTQKN | 1.82
HDPLWERHCKKYWLISEEEKTQKN | 4.24
HDPLWLRHCKKYWLISEEEKTQKN | 2.89
HDPLWYRHCKKYWLISEEEKTQKN | 2.7
HDPLWQRHCKKYWLISEEEKTQKN | 3.54
HDPLWKRHCKKYWLISEEEKTQKN | 3.32
HDPLWFRHCKKYWLISEEEKTQKN | 2.84
HDPLWNRHCKKYWLISEEEKTQKN | 3.85
HDPLWRRHAKKYWLISEEEKTQKN | 3.57
HDPLWRRHDKKYWLISEEEKTQKN | 4.83
